# Source: PMC4669970 (Biochemical pharmacology, 2015)
# Read-outs that look alike come from different tables or passages of the source. No end group written: not given here.
# Tests used:
# human BChE = human BChE (Homo sapiens, UniProt P06276); assay: Inhibition of BChE-catalysed ghrelin hydrolysis by BChE-specific inhibitors; format: biochemical; settings: parallel assays, modest concentrations of inhibitor
# [1] = humans; cited from earlier work
# [2] = rats; cited from earlier work
# [3] = Tissue distribution of [^3H]-ghrelin after i.v. bolus in DFP-pretreated mice; settings: as E30
# human BChE, sequence (P06276 29-602): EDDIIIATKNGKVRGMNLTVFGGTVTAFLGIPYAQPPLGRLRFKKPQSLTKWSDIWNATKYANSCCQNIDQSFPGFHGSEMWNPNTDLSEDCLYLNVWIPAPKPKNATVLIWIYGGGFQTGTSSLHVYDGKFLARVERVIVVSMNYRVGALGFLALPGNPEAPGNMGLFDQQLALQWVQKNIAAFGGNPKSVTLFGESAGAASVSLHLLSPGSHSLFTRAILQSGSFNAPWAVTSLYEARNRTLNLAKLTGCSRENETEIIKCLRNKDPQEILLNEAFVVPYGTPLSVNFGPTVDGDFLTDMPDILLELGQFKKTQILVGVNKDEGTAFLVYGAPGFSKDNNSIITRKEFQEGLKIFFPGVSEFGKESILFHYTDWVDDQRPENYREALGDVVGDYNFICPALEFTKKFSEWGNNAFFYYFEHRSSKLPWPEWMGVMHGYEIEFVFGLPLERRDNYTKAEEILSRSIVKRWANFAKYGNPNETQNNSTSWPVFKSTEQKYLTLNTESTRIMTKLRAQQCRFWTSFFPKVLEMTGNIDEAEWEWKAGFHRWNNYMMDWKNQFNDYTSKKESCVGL
Molecule,effect on BChE ghrelin hydrolysis reactions (human BChE),circulating half-life [1],circulating half-life [2],time of peak concentration in liver [3],time of peak concentration in pancreas [3],time of peak concentration in spleen [3]
CCN(CC)C(C)CN1c2ccccc2Sc2ccccc21 (stereo not drawn) [ethopropazine],stopped those reactions completely,,,,,
"ghrelin (GSS((3H)n‑octanoyl)FLSPEHQRVQQRKESKKPPAKLQPR; also: tritium label on the octanoyl group (tracer form); UniProt Q9UBU3 24-51, looked up)",,8 to 13 min,8 min,6 min,12 min,12 min
